Test system: MS2 coat protein
Test: apparent KD of MS2 coat protein; designed switch direction (-1 OFF switch, 1 ON switch): 1; higher = weaker reporter binding
Summary of the method: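 Normalised cluster fluorescence was curve-fitted, and each design's median over clusters is its apparent KD. Before this, SNAP-549-labelled MS2 coat protein was titrated from 0.7 or 1.5 nM, doubling to 3 µM, over RNA switches transcribed on Illumina chips by stalled E. coli RNA polymerase. Titrations had no input, 200 uM small-molecule ligand, or an oligonucleotide input, and steps lasted 0.8–1.5 h (lowest) to 10–20 min (highest).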

[1] = input ligand: microRNA oligo, concentration not stated
[2] = Eterna round: R95, input ligand: FMN 200 uM
[3] = Eterna round: R95, input ligand: microRNA oligo, concentration not stated
[4] = Eterna round: R95, input ligand: none

## GAAUAGUUGAGAGGAUAUGGAUUAUUGUAGGAUCCAGAAGGUUUUAACAUGAGGAUCACCCAUGUAGGACUAUAUAUGUGAAUA [Parity 97 - Jieux - Same State NG 1] (Eterna round: R96, puzzle: Same State NG 1)
Input ligand: FMN 200 uM
  apparent KD of MS2 coat protein: 13.1 nM
[1]
  apparent KD of MS2 coat protein: 11.7 nM
Input ligand: none
  apparent KD of MS2 coat protein: 19.5 nM

## UGGCUCAGACGAGGAUAUAUGUCUCGAGCUUCGGCUCGAGACAUGAGGAUCACCCAUGUAAUAACAUAGAAGGCGUCUGAGCCA [SSNG2/1-A2] (Eterna round: R96, puzzle: Same State NG 2)
Input ligand: FMN 200 uM
  apparent KD of MS2 coat protein: 22.1 nM
[1]
  apparent KD of MS2 coat protein: 25.2 nM
Input ligand: none
  apparent KD of MS2 coat protein: 37.2 nM

## AAACUACGUGCACAGGAUAUACGUUCCUAUACAUGAGGAUCACCCAUGUACCAACCGAAAAGGAAGUAGAAGGGUGUCCGUAAAC [Esardixequ] (puzzle: Same State 2)
[2]
  apparent KD of MS2 coat protein: 19.2 nM
[3]
  apparent KD of MS2 coat protein: 51.6 nM
[4]
  apparent KD of MS2 coat protein: 57.2 nM

## GCGAGCGUACUUGCUACAUGAGGAUCACCCAUGUUUUAUGGACAGGAUAUGGUACCGUUUCGGUACCAGAAGGGUUCACAUGUG [JL SSNG3 3.82] (Eterna round: R96, puzzle: Same State NG 3)
Input ligand: FMN 200 uM
  apparent KD of MS2 coat protein: 133 nM
[1]
  apparent KD of MS2 coat protein: 186 nM
Input ligand: none
  apparent KD of MS2 coat protein: 254 nM

## UUUAGUGGCGGGCAGGAUAUGUAUUAAAAUACAUGAGGAUCACCCAUGUGCGGGUAUAACACCCGACAGAAGGGCCAAUCGCUAC [Laonerce - 7] (puzzle: Same State 2)
[2]
  apparent KD of MS2 coat protein: 20.9 nM
[3]
  apparent KD of MS2 coat protein: 275 nM
[4]
  apparent KD of MS2 coat protein: 397 nM

## AUAAGUUCGAUGCUCGUCUCUCCGUACAAACAUGAGGAUCACCCAUGUGACUGGGCAAUAGCCCAAUCAGUAUGGCC [Beongetiqu] (puzzle: Sensor for hsa-mir-208a)
[2]
  apparent KD of MS2 coat protein: 34.8 nM
[3]
  apparent KD of MS2 coat protein: 22.8 nM
[4]
  apparent KD of MS2 coat protein: 34.4 nM

## GUUACAUGAGGAUCACCCAUGUAUGUGUGGGAGUAAGUGUCUUAGGAUAUCUAUUAUAUAAAUUAAGAGAAGGAAGAUUGUUGU [JMF's solution 16] (Eterna round: R96, puzzle: Same State NG 3)
Input ligand: FMN 200 uM
  apparent KD of MS2 coat protein: 126 nM
[1]
  apparent KD of MS2 coat protein: 87.9 nM
Input ligand: none
  apparent KD of MS2 coat protein: 124 nM

## UACAAUCUAUCUGAGGAUAUCAUGAUUUUAACAUGAGGAUCACCCAUGUGCAGGAAAACUGCAUAUGAGAAGGCAGAUAGAUUGU [salish99_ss2_r3_070] (puzzle: Same State 2)
[2]
  apparent KD of MS2 coat protein: 199 nM
[3]
  apparent KD of MS2 coat protein: 69.7 nM
[4]
  apparent KD of MS2 coat protein: 178 nM

## GGCACAAAAGCACAGGAUAUGCAAAAGAACACAUGAGGAUCACCCAUGUAGCCUAAUAAAGGGCAGCAGAAGGGUGGGACUGCCA [Quaat] (puzzle: Same State 2)
[2]
  apparent KD of MS2 coat protein: 74.5 nM
[3]
  apparent KD of MS2 coat protein: 239 nM
[4]
  apparent KD of MS2 coat protein: 239 nM

## GGUACAUGAGGAUCACCCAUGUCAAAGGCACCGUGCAGACUGGAGGAUAUCACAGCAGAAAGCUGUGAGAAGGCCGUGUAAGCG [Eternabot solution 17] (Eterna round: R96, puzzle: Same State NG 3)
Input ligand: FMN 200 uM
  apparent KD of MS2 coat protein: 17.4 nM
[1]
  apparent KD of MS2 coat protein: 24.6 nM
Input ligand: none
  apparent KD of MS2 coat protein: 42.9 nM

## AACAGUCGGCGAGGAUAUGGACGUACGAACUUACCCGUGCGGCUCACAUGAGGAUCACCCAUGUUCUAGAAGGCGCCACUGAAA [Atbeon] (Eterna round: R96, puzzle: Same State NG 2)
Input ligand: FMN 200 uM
  apparent KD of MS2 coat protein: 12.2 nM
[1]
  apparent KD of MS2 coat protein: 63.4 nM
Input ligand: none
  apparent KD of MS2 coat protein: 88.8 nM

## GCUAGGAAAUAAGCCAACAUGAGGAUCACCCAUGUAUGUUGGUAGGAUAUCGUUUGCAAAGCAAACGAGAAGGGCUAACCUAGC [Mat - Same State NG 3 - JL Mod - D70] (Eterna round: R96, puzzle: Same State NG 3)
Input ligand: FMN 200 uM
  apparent KD of MS2 coat protein: 72.2 nM
[1]
  apparent KD of MS2 coat protein: 70.6 nM
Input ligand: none
  apparent KD of MS2 coat protein: 85.9 nM

## AGUCCAGCGAAAGCUGGACAAAAGCAUGUACAUGAGGAUCACCCAUGUUCAUGUACAAGCUUUUUGCUCGUCUUGAA [JL mod - D95 - 9] (puzzle: Sensor for hsa-mir-208a)
[2]
  apparent KD of MS2 coat protein: 313 nM
[3]
  apparent KD of MS2 coat protein: 17.1 nM
[4]
  apparent KD of MS2 coat protein: 611 nM

From the supplement of paper PMC9170038
